Laboratory results from paper PMC9482650, “Quantitative fragmentomics allow affinity mapping of interactomes” (Nature Communications, 2022).

Assays:
Test in all cases: holdup assay
Set-up in all cases: key: below the threshold = too weak to quantify, mostly under pKd 3.1 to 4
[1] = target: T1, PDZRN3_1, Q9UPQ7
T1 sequence (Q9UPQ7 244-349, limits assumed, looked up): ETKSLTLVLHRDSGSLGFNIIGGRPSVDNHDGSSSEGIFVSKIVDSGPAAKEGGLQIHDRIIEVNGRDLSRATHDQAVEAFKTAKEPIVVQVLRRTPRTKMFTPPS

[2] = target: T2, MPP6, Q9NZW5
T2 sequence (Q9NZW5 125-219, limits assumed, looked up): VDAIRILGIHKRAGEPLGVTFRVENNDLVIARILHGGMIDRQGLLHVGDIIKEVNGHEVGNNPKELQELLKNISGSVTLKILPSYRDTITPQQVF

[3] = target: SCRIB_2, Q14160
Sequence of SCRIB_2, Q14160 (Q14160 857-960): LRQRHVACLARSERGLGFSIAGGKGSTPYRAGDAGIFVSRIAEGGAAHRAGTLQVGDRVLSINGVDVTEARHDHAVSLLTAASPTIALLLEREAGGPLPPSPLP

[4] = target: MAST2, Q6P0Q8
Sequence of MAST2, Q6P0Q8 (Q6P0Q8 1099-1202): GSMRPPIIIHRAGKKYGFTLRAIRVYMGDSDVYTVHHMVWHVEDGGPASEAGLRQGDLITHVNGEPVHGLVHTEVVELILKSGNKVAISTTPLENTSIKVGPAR

[5] = target: LDB3, O75112
Sequence of LDB3, O75112 (O75112 1-94): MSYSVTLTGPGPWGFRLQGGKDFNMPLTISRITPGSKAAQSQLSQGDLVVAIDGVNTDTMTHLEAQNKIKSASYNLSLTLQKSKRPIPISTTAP

[6] = target: T3, NHERF3_1, Q5T2W1
T3 sequence (Q5T2W1 4-100, limits assumed, looked up): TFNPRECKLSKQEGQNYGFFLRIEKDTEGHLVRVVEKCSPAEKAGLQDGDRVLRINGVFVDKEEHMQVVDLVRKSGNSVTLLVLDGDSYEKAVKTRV

[7] = target: T4, LIN7B, Q9HAP6
T4 sequence (Q9HAP6 88-185, limits assumed, looked up): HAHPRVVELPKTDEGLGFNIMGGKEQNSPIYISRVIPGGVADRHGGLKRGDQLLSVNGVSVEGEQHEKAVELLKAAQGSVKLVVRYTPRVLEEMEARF

[8] = target: FRMPD2_1, Q68DX3
Sequence of FRMPD2_1, Q68DX3 (Q68DX3 770-861): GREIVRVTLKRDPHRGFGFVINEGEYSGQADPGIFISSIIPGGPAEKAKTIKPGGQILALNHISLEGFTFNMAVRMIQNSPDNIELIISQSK

[9] = target: T5, MPP2, Q14168
T5 sequence (Q14168 180-250, limits assumed, looked up): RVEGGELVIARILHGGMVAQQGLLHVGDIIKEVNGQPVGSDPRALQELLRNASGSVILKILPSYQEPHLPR

[10] = target: T6, TX1BP3, O14907
T6 sequence (O14907 10-122, limits assumed, looked up): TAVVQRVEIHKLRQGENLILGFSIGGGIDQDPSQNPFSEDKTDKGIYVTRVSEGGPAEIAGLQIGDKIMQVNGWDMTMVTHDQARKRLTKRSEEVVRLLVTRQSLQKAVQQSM

[11] = target: ARHGEF12, Q9NZN5-2
Sequence of ARHGEF12, Q9NZN5-2 (Q9NZN5 other isoform, or with tags, fused parts or gaps): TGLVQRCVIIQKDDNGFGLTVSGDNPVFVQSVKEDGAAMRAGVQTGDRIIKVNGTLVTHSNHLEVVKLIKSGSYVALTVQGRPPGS

[12] = target: T7, SNTB1, Q13884
T7 sequence (Q13884 107-205, limits assumed, looked up): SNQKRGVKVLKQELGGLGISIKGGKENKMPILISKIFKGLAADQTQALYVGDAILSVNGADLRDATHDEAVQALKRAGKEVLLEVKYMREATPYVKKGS

[13] = target: GRIP2_3, Q9C0E4
Sequence of GRIP2_3, Q9C0E4 (Q9C0E4 238-339): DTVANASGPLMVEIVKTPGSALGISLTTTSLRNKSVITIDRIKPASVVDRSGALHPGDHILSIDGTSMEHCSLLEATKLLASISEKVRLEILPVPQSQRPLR

[14] = target: GRIP2_6, Q9C0E4
Sequence of GRIP2_6, Q9C0E4 (Q9C0E4 648-740): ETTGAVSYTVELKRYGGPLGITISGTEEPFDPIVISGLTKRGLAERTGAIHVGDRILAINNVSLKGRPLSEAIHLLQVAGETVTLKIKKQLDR

[15] = target: TJP1_2, Q07157
Sequence of TJP1_2, Q07157 (Q07157 181-274): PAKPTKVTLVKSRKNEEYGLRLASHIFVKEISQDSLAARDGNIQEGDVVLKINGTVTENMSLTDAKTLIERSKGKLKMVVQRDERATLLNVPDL

[16] = target: T8, LRRC7, Q96NW7
T8 sequence (Q96NW7 1440-1537, limits assumed, looked up): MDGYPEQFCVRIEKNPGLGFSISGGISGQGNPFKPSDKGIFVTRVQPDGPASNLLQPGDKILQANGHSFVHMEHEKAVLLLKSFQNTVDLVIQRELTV

[17] = target: T9, NHERF3_4, Q5T2W1
T9 sequence (Q5T2W1 373-468, limits assumed, looked up): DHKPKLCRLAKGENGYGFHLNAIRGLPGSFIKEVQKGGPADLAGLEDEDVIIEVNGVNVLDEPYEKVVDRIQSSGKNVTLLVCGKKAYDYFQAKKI

[18] = target: LNX1_3, Q8TBB1
Sequence of LNX1_3, Q8TBB1 (Q8TBB1 500-596): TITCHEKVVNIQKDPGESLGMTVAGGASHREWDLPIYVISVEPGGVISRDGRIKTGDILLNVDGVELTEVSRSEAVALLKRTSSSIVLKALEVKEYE

[19] = target: Inadl_1, Q8NI35
Sequence of Inadl_1, Q8NI35 (Q8NI35 113-229): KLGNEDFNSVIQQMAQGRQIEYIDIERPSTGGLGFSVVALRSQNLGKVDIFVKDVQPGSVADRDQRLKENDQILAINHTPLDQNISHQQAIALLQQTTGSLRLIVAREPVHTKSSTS

[20] = target: GORASP2, Q9H8Y8
[21] = target: DLG2_2, Q15700
[22] = target: T10, HTRA4, P83105
T10 sequence (P83105 378-476, limits assumed, looked up): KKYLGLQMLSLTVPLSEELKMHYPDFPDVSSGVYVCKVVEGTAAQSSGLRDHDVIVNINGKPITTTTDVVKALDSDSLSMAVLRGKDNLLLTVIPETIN

[23] = target: PDLIM1, O00151
Sequence of PDLIM1, O00151 (O00151 1-87): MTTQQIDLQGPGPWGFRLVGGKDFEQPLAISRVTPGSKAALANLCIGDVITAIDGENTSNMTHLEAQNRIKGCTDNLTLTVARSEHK

[24] = target: DLG2_3, Q15700
[25] = target: GRIP2_5, Q9C0E4
Sequence of GRIP2_5, Q9C0E4 (Q9C0E4 544-642): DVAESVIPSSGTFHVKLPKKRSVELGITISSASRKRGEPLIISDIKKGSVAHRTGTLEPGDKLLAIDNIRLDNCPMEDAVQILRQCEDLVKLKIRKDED

[26] = target: T11, DLG3_1, Q92796
T11 sequence (Q92796 125-227, limits assumed, looked up): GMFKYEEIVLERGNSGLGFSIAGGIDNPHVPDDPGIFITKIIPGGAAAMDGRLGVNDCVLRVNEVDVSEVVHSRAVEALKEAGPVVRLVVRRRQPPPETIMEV

[27] = plain residues with an end cap or a label only (N-terminal biotin on a linker: ttds)
[28] = plain residues with an end cap or a label only (N-terminal biotin on a linker: ahx)
[29] = plain residues with an end cap or a label only (N-terminal biotin on a linker: ado-ado)

Q: With EVVHTPETSV [SLC16A3, O15427] as the binder, how does the pKd [1, 27] read?
A: 4.42

Q: What about the pKd [2, 27] of the same binder?
A: below the threshold

Q: What about the pKd [3, 27] of the same binder?
A: 4.48

Q: What about the pKd [4, 27] of the same binder?
A: 5.16

Q: What about the pKd [5, 27] of the same binder?
A: below the threshold

Q: What about the pKd [6, 27] of the same binder?
A: below the threshold

Q: What about the pKd [7, 27] of the same binder?
A: 3.61

Q: And the pKd [8, 27]?
A: below the threshold

Q: And the pKd [9, 27]?
A: below the threshold

Q: And the pKd [10, 27]?
A: 3.84

Q: And the pKd [11, 27]?
A: 3.89

Q: What about the pKd [12, 27] of the same binder?
A: 4.76

Q: What about the pKd [13, 27] of the same binder?
A: below the threshold

Q: What about the pKd [14, 27] of the same binder?
A: below the threshold

Q: And the pKd [15, 27]?
A: 3.83

Q: And the pKd [16, 27]?
A: below the threshold

Q: And the pKd [17, 27]?
A: below the threshold

Q: What about the pKd [18, 27] of the same binder?
A: below the threshold

Q: And the pKd [19, 27]?
A: below the threshold

Q: And the pKd [20, 27]?
A: below the threshold

Q: And the pKd [21, 27]?
A: 3.98

Q: And the pKd [22, 27]?
A: below the threshold

Q: And the pKd [23, 27]?
A: below the threshold

Q: And the pKd [24, 27]?
A: 4.35

Q: What about the pKd [25, 27] of the same binder?
A: below the threshold

Q: And the pKd [26, 27]?
A: below the threshold

Q: What does the source list for GYDWGPATDL [TJP3, O95049]?
A: pKd [1, 28]: 3.69; pKd [2, 28]: below the threshold; pKd [3, 28]: 3.78; pKd [4, 28]: 5.77; pKd [5, 28]: 3.97; pKd [6, 28]: below the threshold; pKd [7, 28]: below the threshold; pKd [8, 28]: below the threshold; pKd [9, 28]: below the threshold; pKd [10, 28]: 4.39; pKd [11, 28]: 4.66; pKd [12, 28]: 4.08; pKd [13, 28]: below the threshold; pKd [14, 28]: below the threshold; pKd [15, 28]: below the threshold; pKd [16, 28]: 3.7; pKd [17, 28]: below the threshold; pKd [18, 28]: below the threshold; pKd [19, 28]: below the threshold; pKd [20, 28]: below the threshold; pKd [21, 28]: below the threshold; pKd [22, 28]: below the threshold; pKd [23, 28]: 4.41; pKd [24, 28]: 3.52; pKd [25, 28]: below the threshold; pKd [26, 28]: 3.48

Q: How did the pKd [1, 29] turn out when PLSPEQPTKL [TRIM50, Q86XT4] was run?
A: below the threshold

Q: And the pKd [2, 29]?
A: 3.63

Q: And the pKd [3, 29]?
A: below the threshold

Q: What about the pKd [4, 29] of the same binder?
A: 4.73

Q: And the pKd [5, 29]?
A: below the threshold

Q: What about the pKd [6, 29] of the same binder?
A: 3.53

Q: And the pKd [7, 29]?
A: below the threshold

Q: What about the pKd [8, 29] of the same binder?
A: below the threshold

Q: What about the pKd [9, 29] of the same binder?
A: below the threshold

Q: And the pKd [10, 29]?
A: below the threshold

Q: And the pKd [11, 29]?
A: below the threshold

Q: And the pKd [12, 29]?
A: below the threshold

Q: What about the pKd [13, 29] of the same binder?
A: below the threshold

Q: What about the pKd [14, 29] of the same binder?
A: below the threshold

Q: What about the pKd [15, 29] of the same binder?
A: below the threshold

Q: What about the pKd [16, 29] of the same binder?
A: below the threshold

Q: And the pKd [17, 29]?
A: 3.7

Q: What about the pKd [18, 29] of the same binder?
A: below the threshold

Q: What about the pKd [19, 29] of the same binder?
A: below the threshold

Q: And the pKd [20, 29]?
A: below the threshold

Q: And the pKd [21, 29]?
A: below the threshold

Q: What about the pKd [22, 29] of the same binder?
A: 3.75

Q: And the pKd [23, 29]?
A: below the threshold

Q: What about the pKd [24, 29] of the same binder?
A: below the threshold

Q: And the pKd [25, 29]?
A: below the threshold

Q: What about the pKd [26, 29] of the same binder?
A: below the threshold
